Sequences and labels used below:
B1: TDP-43 prion-like domain, TDP-43(267–414) (domain or fragment, UniProt Q13148 267-414, looked up)
chain: NRQLERSGRFGGNPGGFGNQGGFGNSRGGGAGLGNNQGSNMGGGMNFGAFSINPAMMAAAQAALQSSWGMMGMLASQQNQSGPSGNNQNQGNMQREPNQAFGSGNNSYSGSNSGAAIGWGSASNAGSGSGFNGGFGSSMDSKSSGWGM
notes: Uniformly 15N or 15N/13C labelled for NMR; Fibril seeds of this molecule (from the SSNMR rotor) are the target in the cross-seeding assay; also called TDP-43 PrLD; PrLD of TDP-43; source: E. coli BL21 Star (DE3), inclusion bodies, purified (Ni-NTA in 8 M urea, PD-10 desalting at pH 4)
B2: TDP-43 PrLD variant F313A+F316A (domain or fragment, UniProt Q13148 267-414, looked up)
chain: B1 chain with F47A, F50A
notes: TDP-43 prion-like domain, residues 267-414, with the 2 central Phe residues changed to Ala; The text prints the variant once as F312A+F316A and otherwise as F313A+F316A; also called double mutant; F312A+F316A (as printed once); source: desalted from the 8 M urea-containing solution with a PD-10 column

Series [1] concerns the molecule itself. The series is described as follows: solution NMR, 1H-15N HSQC peak intensities over time; 55 and 110 μM TDP-43 PrLD, pH 4.0, 298 K, 1 mM CD3COOD in 85/15 H2O/D2O, no salt or RNA; first spectrum within 1 hour, second after approximately 20 hours; self-association into aggregates and droplets.
Series [2] deals with B1. In words: cross-seeding followed by ThT fluorescence; 5 μM of each protein variant in 1 mM CD3COOD with 40 μM ThT, 2% (0.12 μM) seeds of the wild-type fibrils studied by SSNMR, 25°C, excitation 450 nm, emission 480 nm. Conditions: both partners purified.

Here are results for two molecules from publication PMC8109789, “Phe-Gly motifs drive fibrillization of TDP-43’s prion-like domain condensates” (PLoS Biology, 2021).

Changes are numbered by the printed parent chain. In names and notes the source's numbering stands.

As to B1, in series [1], the binding result is listed as “binds”. Regarding B2, in series [2], the binding result was “binds”.
